Here are results for one molecule from patent US20250277030A1, “ANTI-NAPI2B ANTIBODIES AND METHODS OF USE” (Zymeworks BC Inc., priority 2022, published 2025).

In the experiment the target is Insulin (Sigma-Aldrich, 19278) (UniProt P01308). Put plainly: non-specific binding ELISA, insulin coated at 5 µg/mL, antibody at 100 nM. (In general: In an ELISA, binding on a coated surface is turned into a signal by an enzyme label.)
Chain of Insulin (Sigma-Aldrich, 19278) (P01308 25-54 limits assumed, chain 1 of 2): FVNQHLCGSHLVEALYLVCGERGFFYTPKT
Chain of Insulin (Sigma-Aldrich, 19278) (P01308 90-110 limits assumed, chain 2 of 2): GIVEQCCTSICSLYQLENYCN

B1: v29452 humanized anti-NaPi2b antibody (H1L3) (antibody, human IgG1, kappa, V domains shown)
VH: QVQLVQSGAEVKKPGASVKVSCKASGFTFTSYNVHWVRQAPGQGLEWMGAISPGNGDLSYAQKFQGRVTMTRDTSTSTVYMELSSLRSEDTAVYYCARGRTGMGAVDYWGQGTLVTVSS
VL: DVQMTQSPSSLSASVGDRVTITCRASQDVYSYLNWYQQKPGKAVKLLIYYTSRLQSGVPSRFSGSGSGTDYTLTISSLQPEDIATYYCQQYNIFPWTFGQGTKLEIKR
With B1, the NS-ELISA binding score (ratio of signal between antibody-treated and untreated) was found to be 1.03.
